{"source": "paper PMC4919518", "assay_in_all_cases": "fluorescence polarization; 5 mM Mg2+; FP: 20 mM HEPES-KOH pH 7.5, 200 mM NaCl, 5 mM MgCl2, 0.01 mg/ml E. coli total tRNA, 0.01% NP-40, 10 pM probe, 25 C; EMSA: 20 mM HEPES-KOH pH 7.5, 200 mM NaCl, 5", "key": {"RsAgo delL777": {"biological_target": "T1, RsAgo delL777 (Rhodobacter sphaeroides (ATCC 17025D-5), UniProt A4WYU7 1-776, del777-777)", "T1 sequence": "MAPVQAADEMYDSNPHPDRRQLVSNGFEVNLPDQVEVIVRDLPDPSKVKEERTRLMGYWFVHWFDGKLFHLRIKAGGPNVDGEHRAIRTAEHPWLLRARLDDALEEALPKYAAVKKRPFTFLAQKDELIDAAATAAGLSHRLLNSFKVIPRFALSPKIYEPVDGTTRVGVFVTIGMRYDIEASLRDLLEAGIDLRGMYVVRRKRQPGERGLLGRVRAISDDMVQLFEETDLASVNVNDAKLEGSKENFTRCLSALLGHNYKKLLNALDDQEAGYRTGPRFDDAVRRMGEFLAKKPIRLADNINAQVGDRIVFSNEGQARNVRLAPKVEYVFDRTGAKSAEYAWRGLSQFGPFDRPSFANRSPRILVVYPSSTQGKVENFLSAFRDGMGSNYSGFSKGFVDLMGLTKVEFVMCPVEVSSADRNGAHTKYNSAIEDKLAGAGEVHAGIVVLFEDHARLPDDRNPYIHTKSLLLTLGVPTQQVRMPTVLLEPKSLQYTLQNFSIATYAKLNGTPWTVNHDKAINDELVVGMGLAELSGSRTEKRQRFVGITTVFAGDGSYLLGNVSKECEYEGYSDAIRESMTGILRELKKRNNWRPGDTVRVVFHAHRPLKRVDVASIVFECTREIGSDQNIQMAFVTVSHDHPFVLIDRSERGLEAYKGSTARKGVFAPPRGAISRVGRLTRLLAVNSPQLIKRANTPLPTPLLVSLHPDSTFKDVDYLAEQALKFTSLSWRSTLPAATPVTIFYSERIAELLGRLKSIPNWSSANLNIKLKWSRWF"}, "RsAgo R481A/T484A": {"biological_target": "T2, RsAgo R481A/T484A (Rhodobacter sphaeroides (ATCC 17025D-5), UniProt A4WYU7 1-777, R481A;T484A)", "T2 sequence": "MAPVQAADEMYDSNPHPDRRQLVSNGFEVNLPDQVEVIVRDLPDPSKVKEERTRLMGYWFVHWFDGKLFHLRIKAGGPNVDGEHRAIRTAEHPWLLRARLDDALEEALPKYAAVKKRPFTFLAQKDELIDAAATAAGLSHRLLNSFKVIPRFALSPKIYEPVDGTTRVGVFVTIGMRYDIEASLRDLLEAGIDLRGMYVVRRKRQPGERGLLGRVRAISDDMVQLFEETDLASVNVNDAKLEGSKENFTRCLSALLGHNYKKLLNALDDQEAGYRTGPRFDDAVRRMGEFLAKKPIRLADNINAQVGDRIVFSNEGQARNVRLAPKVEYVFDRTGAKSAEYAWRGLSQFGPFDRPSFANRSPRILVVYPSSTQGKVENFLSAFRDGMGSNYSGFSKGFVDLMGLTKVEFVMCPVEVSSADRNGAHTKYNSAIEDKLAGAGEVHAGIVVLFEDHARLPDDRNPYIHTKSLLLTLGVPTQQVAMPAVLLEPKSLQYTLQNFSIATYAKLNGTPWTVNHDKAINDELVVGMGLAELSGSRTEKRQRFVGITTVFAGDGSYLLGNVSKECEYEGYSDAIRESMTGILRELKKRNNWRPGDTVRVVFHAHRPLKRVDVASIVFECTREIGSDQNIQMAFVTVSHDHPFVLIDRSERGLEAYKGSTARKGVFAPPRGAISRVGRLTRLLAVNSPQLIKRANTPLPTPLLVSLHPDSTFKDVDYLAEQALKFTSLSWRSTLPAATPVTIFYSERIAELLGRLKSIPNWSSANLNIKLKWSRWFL"}, "RsAgo Y463A/K467A": {"biological_target": "T3, RsAgo Y463A/K467A (Rhodobacter sphaeroides (ATCC 17025D-5), UniProt A4WYU7 1-777, Y463A;K467A)", "T3 sequence": "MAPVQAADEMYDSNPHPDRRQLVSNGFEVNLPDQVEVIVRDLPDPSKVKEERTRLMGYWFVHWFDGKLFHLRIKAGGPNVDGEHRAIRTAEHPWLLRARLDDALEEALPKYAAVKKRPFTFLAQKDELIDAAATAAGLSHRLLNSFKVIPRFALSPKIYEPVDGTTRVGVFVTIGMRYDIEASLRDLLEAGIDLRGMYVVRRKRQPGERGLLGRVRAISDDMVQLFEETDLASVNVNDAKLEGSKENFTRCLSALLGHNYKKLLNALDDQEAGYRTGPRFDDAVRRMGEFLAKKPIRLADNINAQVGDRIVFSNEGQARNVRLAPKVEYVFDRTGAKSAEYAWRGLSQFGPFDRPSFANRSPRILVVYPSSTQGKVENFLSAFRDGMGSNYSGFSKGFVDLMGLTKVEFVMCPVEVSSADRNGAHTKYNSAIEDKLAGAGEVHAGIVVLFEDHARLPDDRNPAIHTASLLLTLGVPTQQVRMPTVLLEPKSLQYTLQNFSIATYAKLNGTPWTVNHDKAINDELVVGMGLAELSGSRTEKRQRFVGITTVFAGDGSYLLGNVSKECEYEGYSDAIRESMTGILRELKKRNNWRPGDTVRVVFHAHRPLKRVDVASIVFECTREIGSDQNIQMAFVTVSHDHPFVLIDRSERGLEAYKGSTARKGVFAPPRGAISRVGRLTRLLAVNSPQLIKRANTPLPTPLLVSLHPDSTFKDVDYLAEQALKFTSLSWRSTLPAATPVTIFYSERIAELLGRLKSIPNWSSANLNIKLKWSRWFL"}}}
{"binder": "UUACAACCUACUACCUCG (ssRNA, 5'-phosphate)", "note": "[5'P-RNA (5'U-RNA), FAM]", "values": [{"measurement": "Kd", "setting": "RsAgo delL777", "value": "38.7 ± 2.1", "unit": "nM"}, {"measurement": "Kd", "setting": "RsAgo R481A/T484A", "value": "718 ± 36", "unit": "nM"}, {"measurement": "Kd", "setting": "RsAgo Y463A/K467A", "value": "1700 ± 123", "unit": "nM"}]}
